Laboratory results: the supplement of paper PMC9732359
± gives the uncertainty stated by the source.

Assay: protein stability index of a GFP-peptide fusion (yeast GPS) (PSI 1-4); higher = more stable; sorted into four equal gates, so the index is relative within each strain
Conditions: pdr5∆
How it was run: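 Tiled 17-residue peptides from yeast proteins were fused downstream of GFP on a plasmid that also expresses Cherry, and the pooled library was carried in yeast. Mid-log cultures grown in leucine-free medium were sorted into four equal gates by GFP/Cherry fluorescence ratio. Plasmids from each gate were PCR-amplified and Illumina-sequenced, and reads were assigned to strains by barcodes. Each peptide's protein stability index is the sum, over gates, of the gate's read frequency multiplied by its gate number.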
Sequence PRKLVLSSGENRYAFSQ [SMC4] has a protein stability index of 1.56 ± 0.058. Work on PRMYHIGLRQFQQIQYE [POP1] yielded a protein stability index of 1.67 ± 0.071. Work on PRRYGKGSRQCRVCSSH [RPS29A] yielded a protein stability index of 3.01 ± 0.043.

Same assay, conditions: san1∆
For NTFKVLSKFFFFIFVFN [COB], the protein stability index was 1.32 ± 0.2. NTHWGLVCPAETPEGQA [RPB2] showed a protein stability index of 1.78 ± 0.15. NTLEEFEHGRTPAEMSR [FAS2] showed a protein stability index of 3.19 ± 0.16. Sequence NTLLQQQNYSKVLLPSI [SWI1] has a protein stability index of 2.79 ± 0.076. In the case of NTLNIDNTARVIFDASI [BRN1], the protein stability index is reported as 2.23 ± 0.056. Sequence NTNGTNASANSTSFSFN [YOR098C/NUP1] has a protein stability index of 2.99 ± 0.042. NTNNNNTNNNNNPANNT [SWI1] showed a protein stability index of 3.409 ± 0.027. In the case of NTQLHGPSATDPETTAT [RGR1], the protein stability index is reported as 2.65 ± 0.073. NTSAQHVESDKITAKTQ [IRR1] showed a protein stability index of 2.95 ± 0.05. Sequence NTSVLMKLKLMIVYYKD [YCS4] has a protein stability index of 1.32 ± 0.21. Work on NTVDGDLLKLVHLSNGY [FAS1] yielded a protein stability index of 2.31 ± 0.076. Sequence NTYKRLVIGIFKRDLLR [YJL039C/NUP192] has a protein stability index of 1.31 ± 0.13. NVESVGSIPVDQVVVRG [RPB3] showed a protein stability index of 2.3 ± 0.07. NVFVILMDKCLPKVRIR [DIS3] showed a protein stability index of 1.87 ± 0.07. For NVGLPILKSLKNRSNRK [YOR098C/NUP1], the protein stability index was 2.88 ± 0.064. NVKNYSTTQEILEFITA [RPC34] showed a protein stability index of 1.18 ± 0.18. Work on NVLNRIQELEDQRDELL [ITC1] yielded a protein stability index of 3.5 ± 0.077. NVNKKALGQDTEKMEEQ [MED11] showed a protein stability index of 2.88 ± 0.034. Sequence NVPGVETANVASLNLLQ [RPL4A] has a protein stability index of 2.86 ± 0.044. Work on NVSLIKIEGVATPQEAQ [RPL33B] yielded a protein stability index of 2.92 ± 0.074. In the case of NVTMIDDLIHFTLKQWN [COR1], the protein stability index is reported as 2.79 ± 0.081. Work on NVVPYHRNTSDYYYEDA [SWI1] yielded a protein stability index of 3.03 ± 0.08. NYAMTRNILHNTVPQVT [SRB5] gave a protein stability index of 1.66 ± 0.08. NYHPMNIDETSDEVSRG [SMC4] gave a protein stability index of 3.23 ± 0.054. In the case of NYIENMNEMCKKINAKE [RPN8], the protein stability index is reported as 3.12 ± 0.043. With NYKQLTLVGGGAKITPE [RRP43] the protein stability index was 2.22 ± 0.18. NYLKYLEYWCNPPYSQC [SOH1] showed a protein stability index of 2.18 ± 0.063. NYLLKRNEDARRNLRYG [RPO31] showed a protein stability index of 3.51 ± 0.12. Work on NYNRIAKICALLFFNFS [NUT1] yielded a protein stability index of 1.37 ± 0.082. Work on PAELEGLLDLERVIVVT [FAS2] yielded a protein stability index of 1.78 ± 0.17. PALLRPGRLDRKIEFPS [RPT3] gave a protein stability index of 3.07 ± 0.11. Sequence PAMAMEDLKNFIFQIIE [SRB8] has a protein stability index of 2.73 ± 0.078. For PASNILRRTTQRVFDET [YDL116W/NUP84], the protein stability index was 2.77 ± 0.13. Work on PAWRVWLNFLRGTIPLL [PRP8] yielded a protein stability index of 1.33 ± 0.1. For PDFLSKYSAITSSIFQE [NUT1], the protein stability index was 2.05 ± 0.06. Work on PDLNIDRNNSTNQIFQS [SIN4] yielded a protein stability index of 2.7 ± 0.21. For PDTSNEICDLAYQYVRA [SRB2], the protein stability index was 2.95 ± 0.046. PDYYMIIKYPVAFDNIN [SNF2] gave a protein stability index of 1.97 ± 0.12. In the case of PEDLNSLYIYYLIKLLG [SIR2], the protein stability index is reported as 2.18 ± 0.064. PEEATTIFSVMVEWLES [PRP8] showed a protein stability index of 1.28 ± 0.14. Sequence PEIDNLDDLVVLKKKNI [RRP6] has a protein stability index of 2.59 ± 0.089. With PEIGNRKINLFYLYMLV [SWI1] the protein stability index was 1.1 ± 0.22. With PENITKREASRGFFDIL [MCD1] the protein stability index was 3.13 ± 0.062. Sequence PEREVLVRELYQWRDLI [RRP6] has a protein stability index of 2.67 ± 0.066. PERWLPLRDRSTYRPKK [SRP72] showed a protein stability index of 2.89 ± 0.2. Sequence PEYYSTARVMGGLKNGV [DIS3] has a protein stability index of 3.23 ± 0.052. Sequence PFFARFKLRIQTTEGYD [RPB11] has a protein stability index of 1.37 ± 0.26. PFQVSSFVKETKLHSGD [SRB8] gave a protein stability index of 2.8 ± 0.085. Sequence PFSEGVTFSVMPPKKSW [SMC4] has a protein stability index of 2.2 ± 0.11. Work on PFTASQSNINTNAPLRT [YIL149C/MLP2] yielded a protein stability index of 2.11 ± 0.075. With PFVLAENMWPFSYQEVE [CDC53] the protein stability index was 1.56 ± 0.051. Sequence PGAKPLQVGDVVSTTAV [FAS1] has a protein stability index of 2.48 ± 0.077. Work on PGGQAALRALARSGLRI [RPS14A] yielded a protein stability index of 2.21 ± 0.04. With PGNNIPYMNHKNTSSMD [GAL11] the protein stability index was 2.16 ± 0.21. In the case of PGNRNADNVDKILEQFE [FAS2], the protein stability index is reported as 2.5 ± 0.19. PGPYPNEQAARAANQGA [CYT1] gave a protein stability index of 2.33 ± 0.059. Sequence PGSRASSRFIKGGSLYG [RPN2] has a protein stability index of 1.45 ± 0.11. Sequence PHLIIQNHNSKSTDNSA [IRR1] has a protein stability index of 2.81 ± 0.05. With PHTVIRRKTTKQNSSSD [YDL088C/ASM4] the protein stability index was 3.01 ± 0.068. With PIFNYIFTEKIYKSIFN [YJL039C/NUP192] the protein stability index was 1.41 ± 0.074. Work on PIGRHEELLAQYESQAP [SWP82] yielded a protein stability index of 2.07 ± 0.1. Work on PINLENNDGSYGLFLKY [SRB8] yielded a protein stability index of 2.18 ± 0.14. PINLPPQIAQLPLATQQ [SNF5] showed a protein stability index of 2.46 ± 0.089. For PISISNAPTFNPKYDTS [YAR002W/NUP60], the protein stability index was 2.71 ± 0.059. Sequence PISKHSKQAIYTRATAS [RPS25A] has a protein stability index of 1.64 ± 0.08. PKDTSAATMTSAPPPAL [RGR1] showed a protein stability index of 2.51 ± 0.069. Sequence PKELGGLGMISASHILI [PRP8] has a protein stability index of 2.14 ± 0.084. In the case of PKFDVGALMALHGEGSG [RPS1A], the protein stability index is reported as 2.23 ± 0.16. With PKKEYDDDAVRREVQIQ [NSL1] the protein stability index was 1.36 ± 0.29. Sequence PKKFGGKGARSRFQKSY [RPS16A] has a protein stability index of 3.31 ± 0.13. Sequence PKLESVKWQYDPNNPVD [SNF12] has a protein stability index of 2.21 ± 0.067. With PKNLSTPSTSSNGEFIP [CSE2] the protein stability index was 2.79 ± 0.039. In the case of PKNVKGEEDADEEETAE [RPN1], the protein stability index is reported as 3.01 ± 0.14. In the case of PKSASNTSSKRQKKKPT [IRR1], the protein stability index is reported as 2.65 ± 0.049. PKVSAGDSGISPEESKA [SIR4] gave a protein stability index of 2.98 ± 0.098. Work on PLELSAPIGKHYVVLDT [DIS3] yielded a protein stability index of 2.63 ± 0.086. Sequence PLKRAIWLIKCCYFIEW [SRB8] has a protein stability index of 2.85 ± 0.097. Sequence PLKTELEANGRSLEKVN [SSN2] has a protein stability index of 3.22 ± 0.1. PLLSNYASKINRAEGPE [RGR1] gave a protein stability index of 2.87 ± 0.12. PLQGIFHNAVFNSFRRF [QCR8] showed a protein stability index of 2.38 ± 0.054. For PLQSIPEIGNRKINLFY [SWI1], the protein stability index was 2.54 ± 0.073. In the case of PLRENTNVLDVKDKEED [YDL116W/NUP84], the protein stability index is reported as 3.25 ± 0.065. Sequence PLRMETIPILESDSKAT [DSN1] has a protein stability index of 2.59 ± 0.14. PLSESLRLVDDDENNPS [RRP6] showed a protein stability index of 2.98 ± 0.084. Sequence PLSLTHRDKNKMDMICR [DIS3] has a protein stability index of 3.23 ± 0.13. Sequence PMASSSSFGSESLTFNE [SWI1] has a protein stability index of 3.14 ± 0.035. PMETLLSGLSADKPFTR [YML031W/NDC1] gave a protein stability index of 2.94 ± 0.037. With PNFEASFVHGVVGQLFQ [SMC2] the protein stability index was 2.58 ± 0.1. Sequence PNFLIMQGKITKVLNMK [SMC2] has a protein stability index of 2.85 ± 0.055. With PNISHSNIDYQTLLANS [SNF2] the protein stability index was 2.58 ± 0.22. Work on PNNSRDDYKDLTCSLYE [IRR1] yielded a protein stability index of 3.18 ± 0.052. In the case of PNPTPSMINSVSPTNVM [PGD1], the protein stability index is reported as 2.32 ± 0.03. Sequence PNSNVELAGGNASLTIE [SMC1] has a protein stability index of 2.95 ± 0.071. Sequence PNVSDKYYLEESNVNDS [NUT1] has a protein stability index of 3.21 ± 0.096. With PPLTYKNDTKILVLALE [PRP8] the protein stability index was 2.52 ± 0.055. PPPPGFEEDSDLALPPP [PRP8] showed a protein stability index of 3.19 ± 0.079. In the case of PPPPQQSQPIANQSATS [SNF5], the protein stability index is reported as 2.92 ± 0.043. PQNTTATTGGLFGSKPQ [YGR119C/NUP57] gave a protein stability index of 3.32 ± 0.13. With PQQAQQQPNPLHGLTPT [GAL11] the protein stability index was 2.83 ± 0.051. Work on PQQSGKKLLINKDASLA [DPB4] yielded a protein stability index of 1.81 ± 0.1. For PRKLVLSSGENRYAFSQ [SMC4], the protein stability index was 1.72 ± 0.086.
